The values that follow come from patent US20230332136A1, “IL-17 RECEPTOR MODULATOR SCREENING SYSTEM” (New York University, priority 2022, published 2023).

For one test, the target named is T1, hIL-17RA/RC (Homo sapiens, UniProt Q8NAC3+Q96F46).
T1 construct: expressed in transfected cells; host or cells: MEF cells stably transduced with retroviral constructs (clonal hADIR-17 line)
T1 sequence (Q96F46 33-866): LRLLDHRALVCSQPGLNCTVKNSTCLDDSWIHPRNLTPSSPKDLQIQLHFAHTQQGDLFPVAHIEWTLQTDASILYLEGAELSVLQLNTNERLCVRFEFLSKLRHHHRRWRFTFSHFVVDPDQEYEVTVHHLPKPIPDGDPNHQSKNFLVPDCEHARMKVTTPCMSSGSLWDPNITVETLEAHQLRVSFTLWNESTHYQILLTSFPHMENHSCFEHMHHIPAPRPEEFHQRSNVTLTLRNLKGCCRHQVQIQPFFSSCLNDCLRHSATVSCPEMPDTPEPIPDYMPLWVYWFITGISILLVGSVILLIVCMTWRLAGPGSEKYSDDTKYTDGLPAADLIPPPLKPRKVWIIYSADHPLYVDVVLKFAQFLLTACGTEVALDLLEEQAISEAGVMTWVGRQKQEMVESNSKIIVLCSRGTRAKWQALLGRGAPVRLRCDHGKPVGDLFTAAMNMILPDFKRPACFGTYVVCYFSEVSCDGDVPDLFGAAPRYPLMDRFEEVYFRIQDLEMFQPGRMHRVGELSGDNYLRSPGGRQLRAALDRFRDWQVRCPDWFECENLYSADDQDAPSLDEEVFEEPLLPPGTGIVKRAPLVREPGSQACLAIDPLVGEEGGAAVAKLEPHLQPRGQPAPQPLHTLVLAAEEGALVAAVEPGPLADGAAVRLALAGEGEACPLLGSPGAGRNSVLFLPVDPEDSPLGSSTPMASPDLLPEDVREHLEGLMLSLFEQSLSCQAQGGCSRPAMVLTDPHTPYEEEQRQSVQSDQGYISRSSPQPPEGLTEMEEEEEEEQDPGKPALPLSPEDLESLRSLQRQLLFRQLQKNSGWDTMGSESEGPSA
T1 sequence (Q8NAC3 21-705 isoform Q8NAC3-3 limits assumed): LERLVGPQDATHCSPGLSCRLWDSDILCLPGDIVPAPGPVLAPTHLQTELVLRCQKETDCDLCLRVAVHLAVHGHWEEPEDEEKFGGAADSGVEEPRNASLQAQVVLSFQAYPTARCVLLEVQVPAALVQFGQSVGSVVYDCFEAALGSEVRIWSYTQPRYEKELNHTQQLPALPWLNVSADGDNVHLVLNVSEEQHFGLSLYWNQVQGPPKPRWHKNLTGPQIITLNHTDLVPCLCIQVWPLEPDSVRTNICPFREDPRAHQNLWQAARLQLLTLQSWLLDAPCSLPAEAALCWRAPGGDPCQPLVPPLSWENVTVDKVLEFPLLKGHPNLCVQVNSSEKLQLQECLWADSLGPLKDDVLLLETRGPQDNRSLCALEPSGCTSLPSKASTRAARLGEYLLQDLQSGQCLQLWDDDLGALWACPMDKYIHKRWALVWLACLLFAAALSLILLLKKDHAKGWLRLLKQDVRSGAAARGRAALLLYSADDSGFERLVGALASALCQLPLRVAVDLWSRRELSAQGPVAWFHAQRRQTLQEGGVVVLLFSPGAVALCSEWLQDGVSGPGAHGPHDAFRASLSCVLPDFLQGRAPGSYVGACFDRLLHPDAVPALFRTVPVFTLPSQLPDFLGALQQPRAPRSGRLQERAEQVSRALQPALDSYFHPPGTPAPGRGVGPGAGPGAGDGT
The test is described as follows: hADIR-17 dmCherry reporter assay (clonal cell line). It counts as cell-based. Particulars: activator screen, increasing doses (FIG. 12). Here is the method:
FIG. 9 provides a graphical depiction of constructs for use with human IL-17 receptors. Similar retroviral transfer plasmid constructs as mouse, with human cDNA sequences replacing mouse cDNA. Exogenous hIL-17RA is provided for a functional hADIR system. hIL-17RC, RB, RE constructs are added last separately to MEF cells already stably transduced with the other three required components, generating 3 independent cell lines.
(§1) Mouse constructs were produced as depicted in the panels of FIG. 1. Human sequence constructs were produced as in the panels of FIG. 9, where mouse cDNA constructs were replaced by human cDNA constructed. In the mouse ADIR system exogenous IL-17RC was not provided because the cell line (mouse embryonic fibroblasts) have endogenous IL-17RC expression. In the hADIR system, human components used for the hADIR system (hRA, hRC, hRB, hAct1) were expressed from added polynucleotides.
The data reflected in the Figures utilized a reporter system specifically designed for Act1-dependent IL-17 signaling pathways. The reporter system is based at least in part on the principle that the engagement of active cognate ligands, and the interaction between Act1 and IL-17 receptors is required for active signaling of IL-17A/F, IL-17E, and IL-17C. The protein-protein-interaction (PPI) based reporter system is highly specific and easily scalable. The disclosure is illustrated using mouse and human systems. For the data presented in the Figures, the system comprised a three-part reporter system specifically designed for detecting IL-17A/F, IL-17E, and IL-17C signaling. The PPI-based reporter system provides for detecting active signaling, and is specific for each of the IL-17 family cytokines. […] Each of the retroviral vectors can contain a unique selection or fluorescent marker to enable efficient generation and maintenance of stable cell lines (for example, Puromycin resistance for m/hIL-17RC(RB, RE)-TSC-tTA; EBFP for m/hAct1-TEV; Neomycin resistance and mVenus fluorescence for TRE-dmCherry-PEST, and Thy1.1 for m/hRA).

The next test deals with T2, IL-17RA/RC (Mus musculus, UniProt Q60943+Q8K4C2).
T2 construct: Full length IL-17RC in the purified ADIR system; expressed in transfected cells; host or cells: mouse embryonic fibroblasts (MEF), retrovirally transduced
T2 sequence (Q60943 32-864): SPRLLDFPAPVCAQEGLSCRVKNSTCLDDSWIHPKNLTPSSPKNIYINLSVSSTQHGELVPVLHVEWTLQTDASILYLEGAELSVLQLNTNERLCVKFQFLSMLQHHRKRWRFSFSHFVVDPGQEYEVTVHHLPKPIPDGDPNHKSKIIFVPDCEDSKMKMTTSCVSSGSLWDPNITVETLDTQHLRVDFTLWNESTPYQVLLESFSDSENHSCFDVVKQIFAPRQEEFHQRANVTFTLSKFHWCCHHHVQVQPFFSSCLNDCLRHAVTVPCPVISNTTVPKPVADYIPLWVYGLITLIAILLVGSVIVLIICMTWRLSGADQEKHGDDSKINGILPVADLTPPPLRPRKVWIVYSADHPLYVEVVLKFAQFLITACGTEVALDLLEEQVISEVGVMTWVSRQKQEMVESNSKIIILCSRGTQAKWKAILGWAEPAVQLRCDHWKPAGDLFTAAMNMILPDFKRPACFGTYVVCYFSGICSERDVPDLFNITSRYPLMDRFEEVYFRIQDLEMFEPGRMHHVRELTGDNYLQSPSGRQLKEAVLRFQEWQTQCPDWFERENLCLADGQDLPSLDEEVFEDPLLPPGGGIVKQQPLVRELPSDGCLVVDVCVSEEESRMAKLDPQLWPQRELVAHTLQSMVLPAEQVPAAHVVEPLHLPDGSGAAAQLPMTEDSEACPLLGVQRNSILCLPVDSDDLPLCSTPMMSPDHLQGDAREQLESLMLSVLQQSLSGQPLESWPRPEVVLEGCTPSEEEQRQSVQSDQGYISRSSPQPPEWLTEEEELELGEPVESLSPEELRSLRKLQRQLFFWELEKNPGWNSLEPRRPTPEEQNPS
T2 sequence (Q8K4C2 22-698): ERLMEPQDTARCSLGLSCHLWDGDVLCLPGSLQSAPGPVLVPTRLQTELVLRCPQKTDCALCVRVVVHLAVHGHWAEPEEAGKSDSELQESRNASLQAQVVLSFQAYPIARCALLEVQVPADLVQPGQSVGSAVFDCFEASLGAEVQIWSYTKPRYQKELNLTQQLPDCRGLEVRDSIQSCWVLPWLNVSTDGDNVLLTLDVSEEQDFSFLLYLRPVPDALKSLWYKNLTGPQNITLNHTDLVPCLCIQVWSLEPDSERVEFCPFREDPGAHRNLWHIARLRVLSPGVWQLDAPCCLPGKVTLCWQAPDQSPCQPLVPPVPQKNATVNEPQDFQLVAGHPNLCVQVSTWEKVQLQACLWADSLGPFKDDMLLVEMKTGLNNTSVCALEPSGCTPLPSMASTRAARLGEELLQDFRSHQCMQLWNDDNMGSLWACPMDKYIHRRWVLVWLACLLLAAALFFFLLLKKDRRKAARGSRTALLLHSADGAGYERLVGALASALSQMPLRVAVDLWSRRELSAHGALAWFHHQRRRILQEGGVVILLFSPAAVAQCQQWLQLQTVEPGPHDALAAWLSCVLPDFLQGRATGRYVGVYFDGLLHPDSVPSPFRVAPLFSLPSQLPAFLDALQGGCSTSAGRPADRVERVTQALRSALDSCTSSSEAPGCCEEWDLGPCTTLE
Kind of test: mADIR-17 dmCherry reporter assay in MEF cells (flow cytometry). Particulars: for dmCherry signal produced: after 24 hrs (FIG. 7). It counts as cell-based.
Text: Unless defined otherwise herein, all technical and scientific terms used in this disclosure have the same meaning as commonly understood by one of ordinary skill in the art to which this disclosure pertains. Where the term “ADIR” is used herein it means ACT1-Dependent IL-17 Receptor Modulator Screening System. The preface “m” means mouse and the prefix “h” means human.
as §1
The data reflected in the Figures utilized a reporter system specifically designed for Act1-dependent IL-17 signaling pathways. The reporter system is based at least in part on the principle that the engagement of active cognate ligands, and the interaction between Act1 and IL-17 receptors is required for active signaling of IL-17A/F, IL-17E, and IL-17C. The protein-protein-interaction (PPI) based reporter system is highly specific and easily scalable. The disclosure is illustrated using mouse and human systems. For the data presented in the Figures, the system comprised a three-part reporter system specifically designed for detecting IL-17A/F, IL-17E, and IL-17C signaling. The PPI-based reporter system provides for detecting active signaling, and is specific for each of the IL-17 family cytokines. The system that is responsive to binding of IL-17A and IL-17F comprises (1) an Act1-tobacco etch virus (TEV) protease fusion protein, which upon active IL-17A/F binding to the IL-17RA/RC receptor heterodimer on a target cell, will be recruited to (2) IL-17RC fused with a TEV cleavage site(TSC)-tTA (a transcriptional transactivator that binds to tetracycline responsive element, or TRE), releasing tTA, which will subsequently translocate into the nucleus where a (3) TRE-dmCherry-PEST (destabilized mCherry) element is integrated into the genome. tTA binds to the TRE to drive dmCherry expression in the target modified cell. The three described components, Act1-TEV, IL-17RC-TSC-tTA, and TRE-dmCherry-PEST, along with IL-17RA, can be delivered by retro or lenti-viral vectors or guide-RNA directed nucleases, or recombinase systems, or by homologous recombination, into mouse embryonic fibroblasts (MEF) or other mammalian cell lines, establishing stable reporter cell lines. Using the same principle, IL-17RC-TSC-tTA can be replaced with IL-17RB-TSC-tTA in the described system to provide for IL-17E (IL-25) binding, and with IL-17RE-TSC-tTA for detecting IL-17C binding. A parallel approach involves attaching the fusion protein of —TSC-tTA to the RA component and three independent system cell lines generated by supplementing RC/RB/RE, Act1-TEV, and TRE-dmCherry reporter components. Each of the retroviral vectors can contain a unique selection or fluorescent marker to enable efficient generation and maintenance of stable cell lines (for example, Puromycin resistance for m/hIL-17RC(RB, RE)-TSC-tTA; EBFP for m/hAct1-TEV; Neomycin resistance and mVenus fluorescence for TRE-dmCherry-PEST, and Thy1.1 for m/hRA).

“hIL-17A: human IL-17A cytokine, cognate ligand in the hADIR-17 system”: in the test with hIL-17RA/RC, the “dmCherry signal response of hADIR-17 clone to ligand” value is “dose-dependent response”.
The same measure, in the same setting: to “hIL-17F: human IL-17F cytokine, cognate ligand in the hADIR-17 system” belongs “dose-dependent response”.

B1: IL-17F: mouse IL-17 family cytokine, cognate ligand of IL-17RA/RC (protein, UniProt Q7TNI7 29-161, looked up)
Interleukin-17F: RKNPKAGVPALQKAGNCPPLEDNTVRVDIRIFNQNQGISVPREFQNRSSSPWDYNITRDPHRFPSEIAEAQCRHSGCINAQGQEDSTMNSVAIQQEILVLRREPQGCSNSFRLEKMLLKVGCTCVKPIVHQAA
B1: the dmCherry signal produced with IL-17RA/RC (0.4 ng/ml) was 0.48%; with IL-17RA/RC (2 ng/ml), 0.81%; with IL-17RA/RC (10 ng/ml), 3.32%; in the test with IL-17RA/RC (50 ng/ml), 13.8%.

B2: IL-25: IL-25 (IL17E), noncognate ligand for the mADIR-17 system; binds IL-17RA/RB (protein, UniProt Q8VHH8 17-169, looked up)
Interleukin-25: VSLRIQEGCSHLPSCCPSKEQEPPEEWLKWSSASVSPPEPLSHTHHAESCRASKDGPLNSRAISPWSYELDRDLNRVPQDLYHARCLCPHCVSLQTGSHMDPLGNSVPLYHNQTVFYRRPCHGEEGTHRRYCLERRLYRVSLACVCVRPRVMA
For the molecule B2, the “responsiveness of mADIR-17 cells (dmCherry signal) to ligand” value in the test with IL-17RA/RC (noncognate ligand, any doses, after 24 hrs, listed as mIL-17E) is listed as “not responsive”.

B3: hIL-25: human IL-25, non-cognate ligand for hADIR-17; cognate ligand of the hADIR-25 system (protein, UniProt Q9H293 33-177, looked up)
Interleukin-25: YSHWPSCCPSKGQDTSEELLRWSTVPVPPLEPARPNRHPESCRASEDGPLNSRAISPWRYELDRDLNRLPQDLYHARCLCPHCVSLQTGSHMDPRGNSELLYHNQTVFYRRPCHGEKGTHKGYCLERRLYRVSLACVCVRPRVMG
For the molecule B3, the “dmCherry signal response of hADIR-17 clone to ligand” value with hIL-17RA/RC is given as “does not respond”.
